In the supplement of paper PMC9170038:

These sequences were tested on MS2 coat protein (assay: apparent KD of MS2 coat protein; higher = weaker reporter binding). Conditions: Eterna round: R107; input ligand: arginine 13.2 mM.
Protocol: (§1)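 RNA-MaP round R107: designed RNA switches with theophylline, tryptophan, arginine or FMN aptamers are transcribed on-chip within common flanks. They are titrated with SNAP-549-labelled MS2 coat protein in RNA-MaP buffer (100 mM Tris pH 7.5, 80 mM KCl, 4 mM MgCl2), without ligand or with the indicated ligand. Median apparent KD per design.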
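For apparent KD of K4 kissing-loop reporter in this document: bound reporter read as fluorescence of individual clusters on recovered sequencing chips by microscopy, with normalized cluster intensities fitted with a binding model.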

Sequence | apparent KD of MS2 coat protein [nM]
GACAUUAUCUGAAGGAGCGAGGUAAAUAGGGAUGAGCAUACAUGAGGAUCACCCAUGUGGCCUCAGGUAGGUCGCAGAUGAGAUU [Exclusion Arginine B GF26] | 41.1
ACAUGAGGGCGAAGGAGCGCGAACAUGAGGAUCACCCAUGUGUAUGUAUGUUGUCAUGUAUCGCAGGUAGGUCGCGCUGUUACAU [Exclusion Arginine B] | 90.1
ACAUGAGGAUCACCCAUGUAGUAGUCAGAAGGAGCGUGGAAUAACACAGGUAGGUCGCUGAUGUUUGGUUAAAUGUAAUCGUGUA [#30 Same State - Arginine A] | 19.6
ACAUCCAGGUUAAUCGUGGACAUGGUCGAUACCAGUAUUUUAAUCUACCCUUGGCAGCGACAUGAGGAUCACCCAUGUGCGAUGA [XTheo A #14] | 13.8
CUCGGAACAAUCGAUACCAGUUCUCAUGGAUUGCAGCAGUACAUGAGGAUCACCCAUGUAAACCCUUGGCAGCGAAGAACAAGAC [theeternabot_exclusion_MS2_Theo_B_18] | 26
UUAUUUAACGGAAGGAGCGCGGAAAUUAAGGUGGGUAAACAUGAGGAUCACCCAUGUAAUCCGCAGGUAGGUCGCCGAUAUUUAU [#24 Exclusion - Arginine B] | 86.1
UGUUUGGUGCGCGAGUGUUGGAUAAUUGAUACCAGUGUAGAAGUGCGCCCUUGGCAGCGAAUCCUAACAUGAGGAUCACCCAUGU [5.X] | 49.1
ACAUGAGGGAUGGAUACCAGCGACAUGAGGAUCACCCAUGUAUGAGGAUCAGCCAUGUUAUGCCCUUGGCAGCCACGAACAUCAG [EDEMULLIN] | 27.3
GUUUUAUCAAAAGAUGAAACAGUGGGUGAACGAGGACCGGUACGGCCGCCACUCGGACAUGAGGAUCACCCAUGUCCAUGUGAAA [AstrosExyTryA#13] | 15.4
AAUAUCAUGAGGAUCACCCAUGAAGAAGAUACCAGAGUGAUGAUCCUCCCUUGGCAGCUUAACGCUGAUUGAUUACAAUCAGCGA | 31.1

Same assay, conditions: Eterna round: R107; input ligand: none

Sequence | apparent KD of MS2 coat protein [nM]
GACAUUAUCUGAAGGAGCGAGGUAAAUAGGGAUGAGCAUACAUGAGGAUCACCCAUGUGGCCUCAGGUAGGUCGCAGAUGAGAUU [Exclusion Arginine B GF26] | 253
ACAUGAGGGCGAAGGAGCGCGAACAUGAGGAUCACCCAUGUGUAUGUAUGUUGUCAUGUAUCGCAGGUAGGUCGCGCUGUUACAU [Exclusion Arginine B] | 233
ACAUGAGGAUCACCCAUGUAGUAGUCAGAAGGAGCGUGGAAUAACACAGGUAGGUCGCUGAUGUUUGGUUAAAUGUAAUCGUGUA [#30 Same State - Arginine A] | 17.4
UUAUUUAACGGAAGGAGCGCGGAAAUUAAGGUGGGUAAACAUGAGGAUCACCCAUGUAAUCCGCAGGUAGGUCGCCGAUAUUUAU [#24 Exclusion - Arginine B] | 156
GUUUUAUCAAAAGAUGAAACAGUGGGUGAACGAGGACCGGUACGGCCGCCACUCGGACAUGAGGAUCACCCAUGUCCAUGUGAAA [AstrosExyTryA#13] | 18.4
AAUAUCAUGAGGAUCACCCAUGAAGAAGAUACCAGAGUGAUGAUCCUCCCUUGGCAGCUUAACGCUGAUUGAUUACAAUCAGCGA | 51.8

Same assay, conditions: Eterna round: R107; input ligand: theophylline 20 uM

Sequence | apparent KD of MS2 coat protein [nM]
GACAUUAUCUGAAGGAGCGAGGUAAAUAGGGAUGAGCAUACAUGAGGAUCACCCAUGUGGCCUCAGGUAGGUCGCAGAUGAGAUU [Exclusion Arginine B GF26] | 212
ACAUGAGGGCGAAGGAGCGCGAACAUGAGGAUCACCCAUGUGUAUGUAUGUUGUCAUGUAUCGCAGGUAGGUCGCGCUGUUACAU [Exclusion Arginine B] | 245
ACAUGAGGAUCACCCAUGUAGUAGUCAGAAGGAGCGUGGAAUAACACAGGUAGGUCGCUGAUGUUUGGUUAAAUGUAAUCGUGUA [#30 Same State - Arginine A] | 27.6
ACAUCCAGGUUAAUCGUGGACAUGGUCGAUACCAGUAUUUUAAUCUACCCUUGGCAGCGACAUGAGGAUCACCCAUGUGCGAUGA [XTheo A #14] | 17.2
CUCGGAACAAUCGAUACCAGUUCUCAUGGAUUGCAGCAGUACAUGAGGAUCACCCAUGUAAACCCUUGGCAGCGAAGAACAAGAC [theeternabot_exclusion_MS2_Theo_B_18] | 48.2
UUAUUUAACGGAAGGAGCGCGGAAAUUAAGGUGGGUAAACAUGAGGAUCACCCAUGUAAUCCGCAGGUAGGUCGCCGAUAUUUAU [#24 Exclusion - Arginine B] | 136
UGUUUGGUGCGCGAGUGUUGGAUAAUUGAUACCAGUGUAGAAGUGCGCCCUUGGCAGCGAAUCCUAACAUGAGGAUCACCCAUGU [5.X] | 52.3
ACAUGAGGGAUGGAUACCAGCGACAUGAGGAUCACCCAUGUAUGAGGAUCAGCCAUGUUAUGCCCUUGGCAGCCACGAACAUCAG [EDEMULLIN] | 45.2
GUUUUAUCAAAAGAUGAAACAGUGGGUGAACGAGGACCGGUACGGCCGCCACUCGGACAUGAGGAUCACCCAUGUCCAUGUGAAA [AstrosExyTryA#13] | 17.1
AAUAUCAUGAGGAUCACCCAUGAAGAAGAUACCAGAGUGAUGAUCCUCCCUUGGCAGCUUAACGCUGAUUGAUUACAAUCAGCGA | 128

Same assay, conditions: Eterna round: R107; input ligand: theophylline 2 mM

Sequence | apparent KD of MS2 coat protein [nM]
GACAUUAUCUGAAGGAGCGAGGUAAAUAGGGAUGAGCAUACAUGAGGAUCACCCAUGUGGCCUCAGGUAGGUCGCAGAUGAGAUU [Exclusion Arginine B GF26] | 453
ACAUGAGGGCGAAGGAGCGCGAACAUGAGGAUCACCCAUGUGUAUGUAUGUUGUCAUGUAUCGCAGGUAGGUCGCGCUGUUACAU [Exclusion Arginine B] | 341
ACAUGAGGAUCACCCAUGUAGUAGUCAGAAGGAGCGUGGAAUAACACAGGUAGGUCGCUGAUGUUUGGUUAAAUGUAAUCGUGUA [#30 Same State - Arginine A] | 18.3
UUAUUUAACGGAAGGAGCGCGGAAAUUAAGGUGGGUAAACAUGAGGAUCACCCAUGUAAUCCGCAGGUAGGUCGCCGAUAUUUAU [#24 Exclusion - Arginine B] | 119
GUUUUAUCAAAAGAUGAAACAGUGGGUGAACGAGGACCGGUACGGCCGCCACUCGGACAUGAGGAUCACCCAUGUCCAUGUGAAA [AstrosExyTryA#13] | 21.1
AAUAUCAUGAGGAUCACCCAUGAAGAAGAUACCAGAGUGAUGAUCCUCCCUUGGCAGCUUAACGCUGAUUGAUUACAAUCAGCGA | 200

Same assay, conditions: Eterna round: R107; input ligand: tryptophan 2.4 mM

Sequence | apparent KD of MS2 coat protein [nM]
GACAUUAUCUGAAGGAGCGAGGUAAAUAGGGAUGAGCAUACAUGAGGAUCACCCAUGUGGCCUCAGGUAGGUCGCAGAUGAGAUU [Exclusion Arginine B GF26] | 256
ACAUGAGGGCGAAGGAGCGCGAACAUGAGGAUCACCCAUGUGUAUGUAUGUUGUCAUGUAUCGCAGGUAGGUCGCGCUGUUACAU [Exclusion Arginine B] | 307
ACAUGAGGAUCACCCAUGUAGUAGUCAGAAGGAGCGUGGAAUAACACAGGUAGGUCGCUGAUGUUUGGUUAAAUGUAAUCGUGUA [#30 Same State - Arginine A] | 17.8
ACAUCCAGGUUAAUCGUGGACAUGGUCGAUACCAGUAUUUUAAUCUACCCUUGGCAGCGACAUGAGGAUCACCCAUGUGCGAUGA [XTheo A #14] | 14.9
CUCGGAACAAUCGAUACCAGUUCUCAUGGAUUGCAGCAGUACAUGAGGAUCACCCAUGUAAACCCUUGGCAGCGAAGAACAAGAC [theeternabot_exclusion_MS2_Theo_B_18] | 33.4
UUAUUUAACGGAAGGAGCGCGGAAAUUAAGGUGGGUAAACAUGAGGAUCACCCAUGUAAUCCGCAGGUAGGUCGCCGAUAUUUAU [#24 Exclusion - Arginine B] | 112
UGUUUGGUGCGCGAGUGUUGGAUAAUUGAUACCAGUGUAGAAGUGCGCCCUUGGCAGCGAAUCCUAACAUGAGGAUCACCCAUGU [5.X] | 39
ACAUGAGGGAUGGAUACCAGCGACAUGAGGAUCACCCAUGUAUGAGGAUCAGCCAUGUUAUGCCCUUGGCAGCCACGAACAUCAG [EDEMULLIN] | 29.8
GUUUUAUCAAAAGAUGAAACAGUGGGUGAACGAGGACCGGUACGGCCGCCACUCGGACAUGAGGAUCACCCAUGUCCAUGUGAAA [AstrosExyTryA#13] | 54.1
AAUAUCAUGAGGAUCACCCAUGAAGAAGAUACCAGAGUGAUGAUCCUCCCUUGGCAGCUUAACGCUGAUUGAUUACAAUCAGCGA | 30.3

Each sequence was assayed on K4 kissing-loop RNA reporter (assay: apparent KD of K4 kissing-loop reporter; higher = weaker reporter binding). Conditions: Eterna round: R107; input ligand: FMN 200 uM.
Protocol: as §1, with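 “a labelled K4 kissing-loop RNA reporter” for “SNAP-549-labelled MS2 coat protein”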

Sequence | apparent KD of K4 kissing-loop reporter [nM]
AAAUAUUGUUACCUGUUAACAUAGGGCCAACGAGGACCGGUACGGCCGCCACUCGUCUCAUAGCGAGUGAUGUUCGCACCGCCCA | 133
UGACUGGACUGAAGGAGCGCAAAACUCCUAGUGAUGUUAGGAAAACGAGACAAAGUCUCGAUGCAGGUAGGUCGCAGUCUAGUCU | 209
AGACCACAAAGUGGUCAGUGUUCGCUGCGGCGAGGACCGGUACGGCCGCCACUCGCGAGUGAUGUUCGCGAGCGCAGCGAACACA [Omei KL Tryp A Exc A v3] | 89.4
CGAGUGAUGUUCGAAGAGUUGUUAAGCGAUACCAGCCAGGAAACUGGCCCUUGGCAGCGUAAUAAAUAAAUAAAUAAAUGAUCAC [Theophylline A Exclusion; Euphoria Solution] | 425
